For orientation: Ki means the dissociation constant of the complex between target and ligand, obtained from inhibition or displacement.

In one assay the target is T1, trypsin (Sus scrofa, UniProt P00761).
T1 construct: trypsin (17,000 units/mg from porcine pancreas); from tissue; host or cells: porcine pancreas
In words: Protease inhibition, fluorogenic MCA substrate: trypsin. The assay is classed as biochemical, porcine. The text has this: (§1) The effects of A4 inhibitor on serine- and thiol- proteases were examined as follows: trypsin (17,000 units/mg from porcine pancreas), factor Xa and β-thrombin (gifts from Dr. Iwanagu, Kyushu University, Fukuoka, Japan), tryptase and chymase (both from rat peritoneal mast cells purified as described in Kido et al., Arch Biochem Biophys 239:436-443 (1985)), α-chymotrypsin (0.75 U/mg from bovine pancreas), elastase (33 U/mg from porcine pancreas), papain, cathepsin B (from rat liver purified as described in Towatari et al., Eur J Biochem 102:279-289 (1979)), plasmin (0.16 U/mg from human plasma), urokinase (0.75 U/mg from human kidney cells, Sigma Chemical Co.), tissue kallikrein (50 U/mg from porcine pancreas) or plasma kallikrein (9.4 U/mg from human plasma) was preincubated with various concentrations of the inhibitor in a total volume of 1.5 ml of buffer containing bovine serum albumin (0.1 mg/ml). The buffers used were as follows: 0.1 M Tris-HCl, pH 7.5, for trypsin, plasmin and urokinase; 0.1 M Tris-HCl, pH 8.0, for chymase and α-chymotrypsin; 0.1 M Tris-HCl, pH 8.0, containing 10 mM CaCl2 for factor Xa and α-thrombin; 0.1 M Tris-HCl, pH 8.5, for tryptase M; 0.1 M Tris-HCl, pH 7.8, for plasma and tissue kallikrein; 0.1 M Tris-HCl, pH 7.0 for elastase; 50 mM acetate, pH 6.0, containing 1 mM EDTA and 4 mM cysteine for papain and cathepsin B. After preincubation for 5 min at 25° C., 7.5 μl of 20 mM concentrations of the fluorogenic substrate shown in Table I were added and the residual activity of each protease was measured in a quartz cuvette maintained thermostatically at 25° C. The amount of 7-amino-4-methylcoumarin liberated from the substrates was determined fluorometrically with excitation and emission wavelengths of 380 nm and 460 nm, respectively, in a Hitachi fluorescence spectrophotometer, 650-10MS model, as reported in Kido et al. (1988), supra. Protein concentration was determined with bicinchoninic acid protein assay reagent as described by Smith et al., Anal. Biochem. 150:76-85 (1985). […]

The next assay deals with Tryptase M. Description: Protease inhibition, fluorogenic MCA substrate: tryptase M. The class given is biochemical, rat.
Source text: as §1, with “The buffers used were as follows: 0.1 M Tris-HCl, pH 7.5, for trypsin, plasmin and urokinase; 0.1 M Tris-HCl, pH 8.0, for chymase and α-chymotrypsin; 0.1 M Tris-HCl, pH 8.0, containing 10 mM CaCl2 for factor Xa and α-thrombin; 0.1 M Tris-HCl, pH 8.5, for tryptase M; 0.1 M Tris-HCl, pH 7.8, for plasma and tissue kallikrein; 0.1 M Tris-HCl, pH 7.0 for elastase; 50 mM acetate, pH 6.0, containing 1 mM EDTA and 4 mM cysteine for papain and cathepsin B. After preincubation for 5 min at 25° C., 7.5 μl of 20 mM concentrations of the fluorogenic substrate shown in Table I were added and the residual activity of each protease was measured in a quartz cuvette maintained thermostatically at 25° C.” left out

The next assay deals with Factor Xa. In words: Protease inhibition, fluorogenic MCA substrate: factor Xa. The class given is biochemical. The settings on record: substrate Boc-Ile-Glu-Gly-Arg-MCA, pH 8.0, 25° C.
Source text: as §1, with “The buffers used were as follows: 0.1 M Tris-HCl, pH 7.5, for trypsin, plasmin and urokinase; 0.1 M Tris-HCl, pH 8.0, for chymase and α-chymotrypsin; 0.1 M Tris-HCl, pH 8.0, containing 10 mM CaCl2 for factor Xa and α-thrombin; 0.1 M Tris-HCl, pH 8.5, for tryptase M; 0.1 M Tris-HCl, pH 7.8, for plasma and tissue kallikrein; 0.1 M Tris-HCl, pH 7.0 for elastase; 50 mM acetate, pH 6.0, containing 1 mM EDTA and 4 mM cysteine for papain and cathepsin B. After preincubation for 5 min at 25° C., 7.5 μl of 20 mM concentrations of the fluorogenic substrate shown in Table I were added and the residual activity of each protease was measured in a quartz cuvette maintained thermostatically at 25° C.” left out

In a further assay the test system is α-Thrombin. Description: Protease inhibition, fluorogenic MCA substrate: α-thrombin. The class given is biochemical.
Source text: as §1, with “The buffers used were as follows: 0.1 M Tris-HCl, pH 7.5, for trypsin, plasmin and urokinase; 0.1 M Tris-HCl, pH 8.0, for chymase and α-chymotrypsin; 0.1 M Tris-HCl, pH 8.0, containing 10 mM CaCl2 for factor Xa and α-thrombin; 0.1 M Tris-HCl, pH 8.5, for tryptase M; 0.1 M Tris-HCl, pH 7.8, for plasma and tissue kallikrein; 0.1 M Tris-HCl, pH 7.0 for elastase; 50 mM acetate, pH 6.0, containing 1 mM EDTA and 4 mM cysteine for papain and cathepsin B. After preincubation for 5 min at 25° C., 7.5 μl of 20 mM concentrations of the fluorogenic substrate shown in Table I were added and the residual activity of each protease was measured in a quartz cuvette maintained thermostatically at 25° C.” left out

For the next assay, the target named is T2, Chymase (Rattus norvegicus, UniProt P09650).
T2 construct: tryptase and chymase (both from rat peritoneal mast cells purified as described in Kido et al); from tissue; host or cells: rat peritoneal mast cells
T2 sequence (P09650 21-260): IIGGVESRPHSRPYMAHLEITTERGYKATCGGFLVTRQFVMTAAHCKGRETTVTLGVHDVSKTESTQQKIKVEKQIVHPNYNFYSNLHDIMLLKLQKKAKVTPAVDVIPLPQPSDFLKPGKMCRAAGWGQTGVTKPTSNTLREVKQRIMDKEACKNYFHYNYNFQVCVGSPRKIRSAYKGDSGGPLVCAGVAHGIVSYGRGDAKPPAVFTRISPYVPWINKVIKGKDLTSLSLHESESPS
Description: Protease inhibition, fluorogenic MCA substrate: chymase. The class given is biochemical.
Source text: as §1, with “The buffers used were as follows: 0.1 M Tris-HCl, pH 7.5, for trypsin, plasmin and urokinase; 0.1 M Tris-HCl, pH 8.0, for chymase and α-chymotrypsin; 0.1 M Tris-HCl, pH 8.0, containing 10 mM CaCl2 for factor Xa and α-thrombin; 0.1 M Tris-HCl, pH 8.5, for tryptase M; 0.1 M Tris-HCl, pH 7.8, for plasma and tissue kallikrein; 0.1 M Tris-HCl, pH 7.0 for elastase; 50 mM acetate, pH 6.0, containing 1 mM EDTA and 4 mM cysteine for papain and cathepsin B. After preincubation for 5 min at 25° C., 7.5 μl of 20 mM concentrations of the fluorogenic substrate shown in Table I were added and the residual activity of each protease was measured in a quartz cuvette maintained thermostatically at 25° C.” left out

The target of a further assay is T3, α-chymotrypsin (Bos taurus, UniProt P00766).
T3 construct: α-chymotrypsin (0.75 U/mg from bovine pancreas); from tissue; host or cells: bovine pancreas
Description: Protease inhibition, fluorogenic MCA substrate: α-chymotrypsin. The assay is classed as biochemical, bovine.
Source text: as §1, with “The buffers used were as follows: 0.1 M Tris-HCl, pH 7.5, for trypsin, plasmin and urokinase; 0.1 M Tris-HCl, pH 8.0, for chymase and α-chymotrypsin; 0.1 M Tris-HCl, pH 8.0, containing 10 mM CaCl2 for factor Xa and α-thrombin; 0.1 M Tris-HCl, pH 8.5, for tryptase M; 0.1 M Tris-HCl, pH 7.8, for plasma and tissue kallikrein; 0.1 M Tris-HCl, pH 7.0 for elastase; 50 mM acetate, pH 6.0, containing 1 mM EDTA and 4 mM cysteine for papain and cathepsin B. After preincubation for 5 min at 25° C., 7.5 μl of 20 mM concentrations of the fluorogenic substrate shown in Table I were added and the residual activity of each protease was measured in a quartz cuvette maintained thermostatically at 25° C.” left out

A further assay concerns the target T4, Elastase (Sus scrofa, UniProt P00772).
T4 construct: elastase (33 U/mg from porcine pancreas); from tissue; host or cells: porcine pancreas
Description: Protease inhibition, fluorogenic MCA substrate: elastase. The assay is classed as biochemical, porcine.
Source text: as §1, with “The buffers used were as follows: 0.1 M Tris-HCl, pH 7.5, for trypsin, plasmin and urokinase; 0.1 M Tris-HCl, pH 8.0, for chymase and α-chymotrypsin; 0.1 M Tris-HCl, pH 8.0, containing 10 mM CaCl2 for factor Xa and α-thrombin; 0.1 M Tris-HCl, pH 8.5, for tryptase M; 0.1 M Tris-HCl, pH 7.8, for plasma and tissue kallikrein; 0.1 M Tris-HCl, pH 7.0 for elastase; 50 mM acetate, pH 6.0, containing 1 mM EDTA and 4 mM cysteine for papain and cathepsin B. After preincubation for 5 min at 25° C., 7.5 μl of 20 mM concentrations of the fluorogenic substrate shown in Table I were added and the residual activity of each protease was measured in a quartz cuvette maintained thermostatically at 25° C.” left out

Read-outs that look alike come from different tables or passages of the source.

T1 sequence (P00761 9-231): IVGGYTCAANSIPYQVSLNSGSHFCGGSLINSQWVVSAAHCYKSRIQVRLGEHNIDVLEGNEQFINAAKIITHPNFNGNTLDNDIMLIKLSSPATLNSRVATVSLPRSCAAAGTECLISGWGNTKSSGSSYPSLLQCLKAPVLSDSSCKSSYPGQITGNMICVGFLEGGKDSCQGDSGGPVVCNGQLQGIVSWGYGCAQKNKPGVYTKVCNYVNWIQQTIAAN
T4 sequence (P00772 27-266): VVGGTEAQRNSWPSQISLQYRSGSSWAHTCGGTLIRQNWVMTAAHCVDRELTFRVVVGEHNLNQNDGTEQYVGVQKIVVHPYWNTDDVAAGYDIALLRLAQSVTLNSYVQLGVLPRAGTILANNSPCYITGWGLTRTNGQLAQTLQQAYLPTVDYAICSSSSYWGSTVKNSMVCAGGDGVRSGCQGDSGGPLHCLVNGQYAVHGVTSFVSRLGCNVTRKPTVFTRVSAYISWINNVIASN

For “A4i: 57 amino acid Kunitz-type serine protease inhibitor encoded by the 168 bp insert of λAPCP168i4”, in the assay with trypsin, the “inhibition of pancreatic trypsin (in words)” value is “inhibits”. Also, the Ki with trypsin (Trypsin, substrate Boc-Phe-Ser-Arg-MCA, pH 7.5, 25° C., read-out: Ki value) was 2.7 nM; in the assay with trypsin (pancreatic trypsin, read-out: Ki), 3 nM; at Tryptase M (tryptase, unit inferred, read-out: dissociation constant Ki) it was 0.22 nM; on Factor Xa, 257 nM; at α-Thrombin (α-Thrombin, substrate Boc-Val-Pro-Arg-MCA, pH 8.0, 25° C.), more than 1000 nM; in the assay with Chymase (Chymase, substrate Suc-Leu-Leu-Val-Tyr-MCA, pH 8.0, 25° C.), more than 1000 nM. The substance also yielded an inhibitory constant (Ki) with α-chymotrypsin (α-chymotrypsin) of 8.5 nM. The “inhibition of tryptase (in words)” value with Tryptase M is given as “strongly inhibits”. Moreover, the “inhibition of α-thrombin (in words)” value in the assay on α-Thrombin is given as “did not inhibit”. In the assay with Chymase, the “inhibition of chymase (in words)” value is “did not inhibit”. For the same substance, the “inhibition of α-chymotrypsin (in words)” value with α-chymotrypsin was “inhibits”. In addition, the “inhibition of pancreatic elastase (in words)” value with Elastase is recorded as “did not inhibit”.

The values are drawn from patent US5187153A, “Methods of treatment using Alzheimer's amyloid polypeptide derivatives” (Scios Nova Inc., priority 1990, dated 1993).
